B1: FGF18: Recombinant human FGF18 (PeproTech), an FGF receptor agonist added to the culture medium (protein, UniProt O76093 28-207, looked up)
Fibroblast growth factor 18: EENVDFRIHVENQTRARDDVSRKQLRLYQLYSRTSGKHIQVLGRRISARGEDGDKYAQLLVETDTFGSQVRIKGKETEFYLCMNRKGKLVGKPDGTSKECVFIEKVLENNYTALMSAKYSGWYVGFTKKGRPRKGPKTRENQQDVHFMKRYPKGQPELQKPFKYTTVTKRSRRIRPTHPA

Assays:
[1] = test system: human iPS cell line QHJI-derived cartilaginous particles; experiment: In vitro integration of paired cartilaginous particles in round-bottom 96-well plate, cultured with FGFR inhibitor; type: cell-based
Method: (§1) Two cartilaginous particles were put into a well of a round-bottom 96-well plate (see FIGS. 1A and 1B) and cultured under the conditions of 37° C. and 5% CO2 in chondrogenic medium (DMEM (Sigma) with 1% ITS, 1% FBS, 2 mM L-glutamine (Thermo), 1×10^−4 M non-essential amino acids (Thermo), 1 mM sodium pyruvate (Thermo), 50 U of penicillin, […] streptomycin, 50 μg/mL ascorbic acid (Nacalai), 10 ng/mL BMP2 (Peprotech), 10 ng/mL TGFβ1 (Peprotech), and 10 ng/mL GDF5 (PTT)). In total, 84 wells, each of which contained a pair of cartilaginous particles, were prepared. The wells were divided into 7 groups (12 pairs per group), and each was subjected to macroscopic and histological analyses at the predetermined time points ([…] after the start of the integration experiment). The medium was changed every day gently and carefully so as not to change the positions of the cartilaginous particles.
To further investigate the effects of FGF on the integration, an FGFR inhibitor, NVP-BGJ398 (ChemScene LLC), was used in the culture. NVP-BGJ398 was dissolved in DMSO to prepare a 50 μM stock solution. In total, 30 new pairs of cartilaginous particles were cultured under the conditions described in the above (3). Fifteen pairs were cultured in a medium supplemented with vehicle (0.3 μL of DMSO), and the other 15 pairs were cultured in a medium supplemented with 0.3 μL of the NVP-BGJ398 stock solution (final concentration: 50 nM). After 14 days of culture, the samples were subjected to histological analysis.
(§2) The pairs of cartilaginous particles were fixed with 4% paraformaldehyde, processed, and embedded in paraffin. 20 to 150 serial sections were prepared around the integrated portion of the sample so that the sections contain the most contact area between the paired cartilaginous particles (see FIG. 1C). Serial sections with the greatest contact portion were selected and used for further analysis. The sections were stained with hematoxylin-eosin and safranin O-fast green-iron hematoxylin and immunostained with a goat anti-type I collagen antibody (Souther Biotech) and an anti-type II collagen antibody (Thermo).
(§3) For statistical analysis, the degree of integration of cartilaginous particles at each time point was graded as follows: grade 0, no integration; grade 1, perichondrium-like membrane integration; grade 2, cartilage integration (Table 2). The grades are non-parametric data, and statistical analysis was performed using the Steel-Dwass test. All the samples were graded as 0 (no integration) on day 0 and graded as 2 (cartilage integration) on day 56.

[2] = test system: human iPS cell line QHJI-derived cartilaginous particles; experiment: In vitro integration of paired cartilaginous particles in round-bottom 96-well plate, cultured with FGF18; type: cell-based; conditions: for Grade 0 No integration (number of pairs) / Grade 1 Integration by perichondrium-like membrane (number of pairs) / Grade2 Integration by cartilage (number of pairs): 15 pairs per group
Method: as §1
Recombinant human FGF18 (PeproTech) was dissolved in phosphate-buffered saline (PBS) to prepare a stock solution (100 μg/mL). In total, 90 pairs of cartilaginous particles were cultured under the conditions described in the above (3). One pair per well was cultured in 0.3 mL of medium. Forty-five pairs were cultured in a medium supplemented with vehicle (0.3 μL of PBS), and the other 45 pairs were cultured in a medium supplemented with 0.3 μL of the FGF18 stock solution (final concentration: 100 ng/mL). The 45 pairs in each treatment group were further separated into three equal-sized groups and subjected to histological analysis (3, 7, or 14 days after the start of the experiment).
as §2, §3

[3] = Day 14, NVP-BGJ398 50 nM, 15 pairs per group, P < 0.01 vs Vehicle (Steel-Dwass)
[4] = Day 14, FGF18 100 ng/mL, P < 0.01 vs Vehicle (Steel-Dwass)

Row | Molecule | Grade 0 No integration (number of pairs) [1, 3] | Grade 1 Integration by perichondrium-like membrane (number of pairs) [1, 3] | Grade2 Integration by cartilage (number of pairs) [1, 3] | Pairs of cartilaginous particles that showed integration ([1]; Day 14, NVP-BGJ398 50 nM, 15 pairs, vehicle 11 out of 15) | Effect of addition to the medium on integration of cartilaginous particles ([1]; NVP-BGJ398 50 nM in medium) | Grade 0 No integration (number of pairs) ([2]; Day 3, FGF18 100 ng/mL) | Grade 1 Integration by perichondrium-like membrane (number of pairs) ([2]; Day 3, FGF18 100 ng/mL) | Grade2 Integration by cartilage (number of pairs) ([2]; Day 3, FGF18 100 ng/mL) | Grade 0 No integration (number of pairs) ([2]; Day 7, FGF18 100 ng/mL) | Grade 1 Integration by perichondrium-like membrane (number of pairs) ([2]; Day 7, FGF18 100 ng/mL) | Grade2 Integration by cartilage (number of pairs) ([2]; Day 7, FGF18 100 ng/mL) | Grade 0 No integration (number of pairs) [2, 4] | Grade 1 Integration by perichondrium-like membrane (number of pairs) [2, 4] | Grade2 Integration by cartilage (number of pairs) [2, 4] | Integration of treated cartilaginous particles (observation) ([2]; Day 14, FGF18 100 ng/mL, vehicle showed minimal integration) | Integration grade versus vehicle-treated pairs (statistics) ([2]; Day 14, Steel-Dwass test) | Effect of addition to the medium on integration of cartilaginous particles ([2]; FGF18 100 ng/mL in medium) | Histological finding in treated cartilaginous particles ([2]; FGF18 100 ng/mL, safranin O-fast green-iron hematoxylin sections)
1 | CCN1CCN(c2ccc(Nc3cc(N(C)C(=O)Nc4c(Cl)c(OC)cc(OC)c4Cl)ncn3)cc2)CC1 [NVP-BGJ398] | 15 | 0 | 0 | no pairs | inhibited the integration of cartilaginous particles |  |  |  |  |  |  |  |  |  |  |  |  | 
2 | B1 |  |  |  |  |  | 12 | 3 | 0 | 10 | 5 | 0 | 1 | 14 | 0 | substantial integration | Significant difference | accelerated the integration of cartilaginous particles | thick connection of the perichondrium-like membranes

— US20210299331A1, “PLURIPOTENT STEM CELL-DERIVED PLATE-SHAPED CARTILAGE AND METHOD FOR PRODUCING THE SAME” (KYOTO UNIVERSITY, priority 2018, published 2021)
